Key:
[1] = target: T1, XPF-ERCC1 nuclease (XE), recombinant (UniProt Q9QZD4 1-917; P07903 1-298); assay: cell-based or functional assay
T1 sequence (looked up) 1: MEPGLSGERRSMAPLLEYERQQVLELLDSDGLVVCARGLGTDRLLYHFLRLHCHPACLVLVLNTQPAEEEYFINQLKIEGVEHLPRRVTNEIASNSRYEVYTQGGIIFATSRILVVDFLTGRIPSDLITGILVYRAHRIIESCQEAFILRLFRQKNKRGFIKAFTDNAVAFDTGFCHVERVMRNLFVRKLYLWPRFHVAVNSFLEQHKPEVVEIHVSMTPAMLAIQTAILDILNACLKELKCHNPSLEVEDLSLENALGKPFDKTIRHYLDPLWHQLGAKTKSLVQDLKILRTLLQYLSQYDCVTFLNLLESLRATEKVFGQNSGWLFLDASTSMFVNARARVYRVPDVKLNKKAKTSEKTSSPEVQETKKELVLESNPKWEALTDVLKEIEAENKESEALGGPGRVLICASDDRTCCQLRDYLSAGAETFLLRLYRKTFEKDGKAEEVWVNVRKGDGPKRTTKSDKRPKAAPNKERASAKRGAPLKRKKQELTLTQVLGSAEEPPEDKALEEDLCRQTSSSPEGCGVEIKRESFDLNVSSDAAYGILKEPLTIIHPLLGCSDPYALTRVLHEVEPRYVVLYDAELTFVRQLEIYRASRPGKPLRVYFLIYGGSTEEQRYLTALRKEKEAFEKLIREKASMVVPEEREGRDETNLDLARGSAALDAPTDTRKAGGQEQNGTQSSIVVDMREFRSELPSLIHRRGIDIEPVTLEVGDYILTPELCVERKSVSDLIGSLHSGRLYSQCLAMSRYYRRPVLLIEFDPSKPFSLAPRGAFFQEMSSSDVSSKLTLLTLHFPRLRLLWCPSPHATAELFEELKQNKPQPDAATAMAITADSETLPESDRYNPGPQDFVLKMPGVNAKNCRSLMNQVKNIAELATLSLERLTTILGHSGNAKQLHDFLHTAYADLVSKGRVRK
T1 sequence (looked up) 2: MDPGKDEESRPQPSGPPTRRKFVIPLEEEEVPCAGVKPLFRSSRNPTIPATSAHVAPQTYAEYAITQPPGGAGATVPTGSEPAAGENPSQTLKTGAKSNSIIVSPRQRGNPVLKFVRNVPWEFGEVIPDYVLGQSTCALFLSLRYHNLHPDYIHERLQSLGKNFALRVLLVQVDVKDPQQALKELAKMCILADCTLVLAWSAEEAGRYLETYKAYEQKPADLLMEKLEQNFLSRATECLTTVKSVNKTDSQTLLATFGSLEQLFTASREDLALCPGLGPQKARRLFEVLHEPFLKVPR

[2] = target: T1, XPF-ERCC1 nuclease (XE), recombinant; assay: SEC-MALS; light-scattering analysis of the purified SXE complex (Figure S1F); settings: both partners purified
[3] = target: the molecule itself; assay: as above

B1: Recombinant mini-SLX4 (1-758) (domain or fragment, mouse, UniProt Q6P1D7 1-758, looked up)
chain: MVPESAPNGNSQPLPSCFTTTGVPSPSKPRVSELVLQRMKQFKRADPERLRHASEESPQKTALGDDVPRSPPEETVGENEYKLDATDSDAAMALALQQEFRREEASSHHDSLEEKGLFFCQMCQKNLSAMNVTRREQHVNRCLDEAEKAQRPASPRIPDCPICGKPFLTTKSRISHLKQCAVRMEVGPQLLLQAVRLQTAQPEVDGSPQVPSFSNNVGGLKRKGVTTKREPRRRKVNKPEAPSEDLLVAMALSRSEVEHCPVVPPLRLENAFSEKIRLGAEKKSRKKRPPVCPPQLVTQDSETTGRQIEDRVAQLLSEEAELSCTPPLLASKISKEELEPAGWRARLPEGKRNFLWELSALTGAWAEESFYTVGLFPPIVSQCPSKEPQLPLELPKQGEPSPRRPPASQSSLPVSHSPKIRLLSSSQRERQALQDLVDLAVEGLSSSPQPGSRGVPTGLDLVPSSLPLTGFVLPCKKTLKKDDSASLSLGLLVTDFGAMVNNPHLSDVQFQLDSGEVLYAHKFVLYARCPLLIQYVSTESFSSEEDGDLTQRALLSDVSSEAAHAFLNYLYMADTDMPPSLVPDLRSLALRFGVSDLVQLCEQVPAVVDLEGEQPEETSEDCESRAETFLELLRSVWVDNEEEVETLLKPELCEEERERVNEAEMEEIYEFAATQRKLLQWGRAADPDGSTNPHGEDGAVSEPSLAGVQSNRQLENTEHMESSGLEKEEALASWEQEGHSTPLQDQCPDWAGKAEAQD
notes: mouse SLX4, residues 1-758; source: insect cells, purified (in complex with XPF-ERCC1, or alone)
incision rate on the interstrand crosslink (ICL) fork substrate, SXE against XE (5 nM enzyme) [1]: 110 fold
nuclease rate on the bubble substrate, SXE against XE (5 nM enzyme) [1]: 3.5 fold
nuclease rate on the fork substrate Y11, SXE against XE (5 nM enzyme) [1]: 16 fold
nuclease rate on the long stem-loop substrate, SXE against XE (5 nM enzyme) [1]: 3.7 fold
stoichiometry N [2]: 1

B2: mini-SLX4-XPF-ERCC1 (SXE) complex (complex)
chain 1: B1 chain
chain 2: T1 sequence (looked up) 1
chain 3: T1 sequence (looked up) 2
notes: mouse SLX4, residues 1-758; XPF, wild type; ERCC1; 430 kDa by light scattering; also called WT SXE; source: insect cells, purified; copies: 2 + 2 + 2
stoichiometry N [3]: 2
